{
  "source": "the supplement of paper PMC10567573",
  "parents": {"B1": {"name": "WEE1 (parent)", "chain": "FLGSSFSPVRCGGPGDASPRGCGA"}, "B2": {"name": "ZC3H15 (parent)", "chain": "ENLFTGEDLDELEEELNTLDLEE"}},
  "data": [
    {"variants_of": "B1", "experiment": "protein stability index of a GFP-peptide fusion (GPS, HEK-293T) (PSI 1-6); higher = more stable", "settings": "c terminus: a fixed tail appended", "values": [
      {"variant": "FLGSSFSPVRCGGPGDAYPRGCGA", "protein stability index": 1.65},
      {"variant": "FLGSSFSPVRCGGPGDATPRGCGA", "protein stability index": 1.42},
      {"variant": "FLGSSFSPVRCGGPGDAHPRGCGA", "protein stability index": 1.83},
      {"variant": "FLGSSFSPVRCGGPGDAVPRGCGA", "protein stability index": 2.09},
      {"variant": "FLGSSFSPVRCGGPGDAFPRGCGA", "protein stability index": 1.86},
      {"variant": "FLGSSFSPVRCGGPGDAGPRGCGA", "protein stability index": 1.98}
    ]},
    {"variants_of": "B2", "experiment": "protein stability index of a GFP-peptide fusion (GPS, HEK-293T) (PSI 1-6); higher = more stable", "settings": "c terminus: native", "values": [
      {"variant": "EPLFTGEDLDELEEELNTLDLEE", "protein stability index": 4.24},
      {"variant": "EKLFTGEDLDELEEELNTLDLEE", "protein stability index": 3.49},
      {"variant": "ESLFTGEDLDELEEELNTLDLEE", "protein stability index": 4.6},
      {"variant": "EILFTGEDLDELEEELNTLDLEE", "protein stability index": 3.61},
      {"variant": "EMLFTGEDLDELEEELNTLDLEE", "protein stability index": 4.08},
      {"variant": "ERLFTGEDLDELEEELNTLDLEE", "protein stability index": 4.94},
      {"variant": "ETLFTGEDLDELEEELNTLDLEE", "protein stability index": 4.23},
      {"variant": "EYLFTGEDLDELEEELNTLDLEE", "protein stability index": 4.78},
      {"variant": "EQLFTGEDLDELEEELNTLDLEE", "protein stability index": 4.71},
      {"variant": "EHLFTGEDLDELEEELNTLDLEE", "protein stability index": 4},
      {"variant": "ECLFTGEDLDELEEELNTLDLEE", "protein stability index": 4.28},
      {"variant": "EELFTGEDLDELEEELNTLDLEE", "protein stability index": 4.39},
      {"variant": "EWLFTGEDLDELEEELNTLDLEE", "protein stability index": 3.12},
      {"variant": "EVLFTGEDLDELEEELNTLDLEE", "protein stability index": 4.17},
      {"variant": "ENGFTGEDLDELEEELNTLDLEE", "protein stability index": 4.81},
      {"variant": "ENMFTGEDLDELEEELNTLDLEE", "protein stability index": 5.09},
      {"variant": "ENDFTGEDLDELEEELNTLDLEE", "protein stability index": 5.09},
      {"variant": "ENEFTGEDLDELEEELNTLDLEE", "protein stability index": 4.08},
      {"variant": "ENCFTGEDLDELEEELNTLDLEE", "protein stability index": 3.83},
      {"variant": "ENAFTGEDLDELEEELNTLDLEE", "protein stability index": 4.1},
      {"variant": "ENPFTGEDLDELEEELNTLDLEE", "protein stability index": 4.65},
      {"variant": "ENIFTGEDLDELEEELNTLDLEE", "protein stability index": 4.57},
      {"variant": "ENHFTGEDLDELEEELNTLDLEE", "protein stability index": 4.39},
      {"variant": "ENKFTGEDLDELEEELNTLDLEE", "protein stability index": 4.06},
      {"variant": "ENNFTGEDLDELEEELNTLDLEE", "protein stability index": 4.8},
      {"variant": "KNLFTGEDLDELEEELNTLDLEE", "protein stability index": 3.59},
      {"variant": "NNLFTGEDLDELEEELNTLDLEE", "protein stability index": 4.12},
      {"variant": "DNLFTGEDLDELEEELNTLDLEE", "protein stability index": 4.19},
      {"variant": "WNLFTGEDLDELEEELNTLDLEE", "protein stability index": 2.89},
      {"variant": "SNLFTGEDLDELEEELNTLDLEE", "protein stability index": 4.42},
      {"variant": "HNLFTGEDLDELEEELNTLDLEE", "protein stability index": 3.66},
      {"variant": "FNLFTGEDLDELEEELNTLDLEE", "protein stability index": 3.23},
      {"variant": "CNLFTGEDLDELEEELNTLDLEE", "protein stability index": 3.8},
      {"variant": "TNLFTGEDLDELEEELNTLDLEE", "protein stability index": 4.11},
      {"variant": "MNLFTGEDLDELEEELNTLDLEE", "protein stability index": 3.76},
      {"variant": "QNLFTGEDLDELEEELNTLDLEE", "protein stability index": 4.14},
      {"variant": "ANLFTGEDLDELEEELNTLDLEE", "protein stability index": 4.26},
      {"variant": "INLFTGEDLDELEEELNTLDLEE", "protein stability index": 3.24},
      {"variant": "VNLFTGEDLDELEEELNTLDLEE", "protein stability index": 4.25},
      {"variant": "LNLFTGEDLDELEEELNTLDLEE", "protein stability index": 4.16},
      {"variant": "PNLFTGEDLDELEEELNTLDLEE", "protein stability index": 4.12},
      {"variant": "YNLFTGEDLDELEEELNTLDLEE", "protein stability index": 3.58}
    ]}
  ]
}
